{"source": "paper PMC4764579", "about": "“Structural insights into the mechanism of activation of the TRPV1 channel by a membrane-bound tarantula toxin” (eLife, 2016)", "key": {"rTRPV1": {"target": "T1, rTRPV1 (Rattus norvegicus, UniProt O35433)", "T1 construct": "preserved in the full-length construct used for our functional studies; expressed in transfected cells; host or cells: HEK293", "T1 sequence (O35433 whole entry)": "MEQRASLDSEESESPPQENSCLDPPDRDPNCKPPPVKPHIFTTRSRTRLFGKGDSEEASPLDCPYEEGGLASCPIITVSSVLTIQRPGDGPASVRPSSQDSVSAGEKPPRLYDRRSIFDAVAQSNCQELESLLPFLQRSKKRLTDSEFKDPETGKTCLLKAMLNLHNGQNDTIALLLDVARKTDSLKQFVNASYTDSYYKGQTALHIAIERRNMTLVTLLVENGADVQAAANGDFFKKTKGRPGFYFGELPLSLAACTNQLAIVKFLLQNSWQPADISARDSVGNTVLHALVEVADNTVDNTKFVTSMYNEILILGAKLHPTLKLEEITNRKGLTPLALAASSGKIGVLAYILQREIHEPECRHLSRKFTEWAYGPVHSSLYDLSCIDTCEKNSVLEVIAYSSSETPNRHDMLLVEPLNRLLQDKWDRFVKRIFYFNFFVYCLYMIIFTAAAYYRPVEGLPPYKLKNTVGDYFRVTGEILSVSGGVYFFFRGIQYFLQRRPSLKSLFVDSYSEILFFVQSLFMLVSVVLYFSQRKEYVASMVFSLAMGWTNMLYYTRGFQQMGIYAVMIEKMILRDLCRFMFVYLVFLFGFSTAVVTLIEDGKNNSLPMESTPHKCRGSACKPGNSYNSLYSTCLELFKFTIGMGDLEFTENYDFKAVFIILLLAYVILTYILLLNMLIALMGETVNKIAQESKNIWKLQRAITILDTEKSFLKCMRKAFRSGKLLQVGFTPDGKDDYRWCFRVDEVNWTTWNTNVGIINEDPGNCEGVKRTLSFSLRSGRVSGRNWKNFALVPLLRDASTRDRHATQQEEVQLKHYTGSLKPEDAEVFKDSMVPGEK", "test": "Whole-cell patch clamp recordings of TRPV1 activation by toxins in transiently transfected HEK293 cells", "format": "cell-based", "excerpt": "Figure 3. Validation of the proposed structural model of the TRPV1-DkTx complex. Close-up of K1 (A) and K2 (B) in the top-ranking ROSETTA model of DkTx bound to TRPV1. Side chains of TRPV1 residues where mutation disrupts DkTx-induced channel activation (I599, F649, A657 and F659) ([Bohlen et al., 2010]) are highlighted in purple. (C) Representative time courses of TRPV1 activation at +120 mV by either DkTx (left panel), K1K1 (middle panel) or K2K2 (right panel) measured from a train of voltage-ramps in the whole-cell configuration with the TRPV1 expressed in HEK cells. […] Fractional dissociation 1 min after toxin removal was quantified across cells as the current amplitude 1 min after toxin removal divided by the steady-state current amplitude in the presence of the toxin. […] Activation of the full-length TRPV1 channel by the toxin at different concentrations was measured in oocytes at a holding voltage of −60 mV. […]\nFigure 7. […] Currents were measured every 3 s by applying voltage-ramps of 1 s duration from −120 to +140 mV starting at a holding potential of −90 mV. Currents were recorded under constant perfusion with control solution or with the test solutions containing either NMDG^+ instead of Na^+ as permeant ion (gray), or the K2 toxins together with 130 mM NaCl (black and blue), as indicated by the continuous horizontal lines. […]"}, "[1]": {"test": "Membrane partitioning of toxins into lipid vesicles measured using Trp fluorescence", "format": "physicochemical", "excerpt": "Motivated by the amphipathic character evident in the structure of DkTx, together with the placement of the toxin at the protein-lipid interface when bound to TRPV1, we investigated the interaction of DkTx and each of its two lobes with lipid membranes. For these experiments, we took advantage of the presence of a single conserved and solvent accessible Trp residue in loop 2 of both K1 and K2 (Figure 1C,D; W11 and W53), and used Trp fluorescence to monitor the partitioning of the toxin from the aqueous solution into the membrane environment ([Gupta et al., 2015]; [Ladokhin et al., 2000]; [Milescu et al., 2007]). When aqueous solutions of DkTx were excited at a wavelength of 280 nm, emission spectra with maxima at 353 nm were obtained (Figure 5A, left), as expected for Trp residues residing in such an environment. […] To quantify the extent of partitioning as a function of lipid concentration, we measured the relative fluorescence intensity in a blue-shifted region of the spectra (e.g. 320 nm) as a function of lipid concentration, and fit a partition function to the data to obtain a mole-fraction partition coefficient (Kx) of (2.3 ± 0.7) × 10^6, indicating an energetically favorable interaction of DkTx with lipid membranes (Figure 5A, right). This strong interaction of DkTx with membranes would facilitate binding of the toxin to the channel by increasing the local concentration of the toxin near the channel and by a reduction in the dimensionality of diffusion within the membrane ([Axelrod and Wang, 1994]).\nFigure 5. Interaction of DkTx and toxin constructs with lipid membranes measured using Trp fluorescence. […] (A–E, right panel) Relative fluorescence intensity at 320 nm (F/F0) as a function of available lipid concentrations (60% of total lipid concentration). […] Interaction of K1-K2 chimeras with lipid membranes measured using Trp fluorescence. […] (A–D, right panel) Relative fluorescence intensity at 320 nm (F/F0) as a function of available lipid concentrations (60% of total lipid concentration). […]"}}}
{"molecule": "double-knot toxin (protein, produced recombinantly) DCAKEGEVCSWGKKCCDLDNFYCPMEFIPHCKKYKPYVPVTTNCAKEGEVCGWGSKCCHGLDCPLAFIPYCEKYR", "values": [{"measurement": "dissociation from TRPV1 after toxin removal (in words)", "setting": "rTRPV1; HEK cells", "value": "slow dissociation"}, {"measurement": "Fractional dissociation 1 min after toxin removal (current amplitude 1 min after toxin removal divided by steady-state current amplitude in presence of toxin)", "setting": "rTRPV1; TRPV1 in HEK cells, +120 mV from voltage ramps, 1 µM toxin, mean ± sem, n = 8 (DkTx), 5 (K1K1), 6 (K2K2), SEM", "value": "0.8 ± 0.05"}, {"measurement": "F/F0^max (relative fluorescence intensity at 320 nm when partitioning is saturated)", "setting": "[1]; Trp fluorescence, LUVs 1:1 POPC:POPG, 10 mM HEPES, 1 mM EDTA, pH 7.0, fit of partition function, ± SEM, n = 3 or 4, SEM", "value": "2.65 ± 0.08"}, {"measurement": "mole-fraction partition coefficient (Kx)", "setting": "[1]; Trp fluorescence, excitation 280 nm, F/F0 at 320 nm, LUVs 1:1 POPC:POPG extruded through 100 nm, toxin 2 or 5 µM in 10 mM HEPES, 1 mM EDTA, pH 7.0, available lipid 60% of total, fit of partition function, ± SEM, n = 3 or 4, SEM", "value": "(2.3 ± 0.7) × 10^6"}, {"measurement": "measured free energy of membrane partitioning (ΔG° = −RT lnKx)", "setting": "[1]; from measured Kx, LUVs 1:1 POPC:POPG", "value": -8.5, "unit": "kcal/mol"}]}
